In patent US20160032013A1 (Genentech, published 2016) one finds Kd data, which are given here for five molecules.

The chains are these.
B1: m.L8.m DANA (Fc fusion)
MSP β-linker-Fc fusion chain: VVGGHPGNSPWTVSLRNRQGQHFCGGSLVKEQWVLTARQCIWSCHEPLTGYEVWLGTINQNPQPGEANLQRVPVAKAVCGPAGSQLVLLKLERPVILNHHVALIALPPEQYVVPPGTKCEIAGWGESIGTSNNTVLHVASMNVISNQECNTKYRGHIQESEICTQGLVVPVGACEGDYGGPLACYTHDAWVLQGLIIPNRVCARPRWPAIFTRVSVFVDWINKVMQLEPRGPTIKPCPPCKCPAPNLLGGPSVFIFPPKIKDVLMISLSPIVTCVVVAVSEDDPDVQISWFVNNVEVHTAQTQTHREDYASTLRVVSALPIQHQDWMSGKEFKCKVNNKDLPAPIERTISKPKGSVRAPQVYVLPPPEEEMTKKQVTLTCMVTDFMPEDIYVEWTNNGKTELNYKNTEPVLDSDGSYFMYSKLRVEKKNWVERNSYSCSVVHEGLHNHHTTKSFSRTPGK
notes: As m8m, with the DANA mutations in the Fc; also called m8m (DANA); Mouse MSP β-L8-mIgG2a Fc (DANA)
B2: m.L16.m DANA (Fc fusion)
MSP β-linker-Fc fusion chain: VVGGHPGNSPWTVSLRNRQGQHFCGGSLVKEQWVLTARQCIWSCHEPLTGYEVWLGTINQNPQPGEANLQRVPVAKAVCGPAGSQLVLLKLERPVILNHHVALIALPPEQYVVPPGTKCEIAGWGESIGTSNNTVLHVASMNVISNQECNTKYRGHIQESEICTQGLVVPVGACEGDYGGPLACYTHDAWVLQGLIIPNRVCARPRWPAIFTRVSVFVDWINKVMQLEQVTDKKIEPRGPTIKPCPPCKCPAPNLLGGPSVFIFPPKIKDVLMISLSPIVTCVVVAVSEDDPDVQISWFVNNVEVHTAQTQTHREDYASTLRVVSALPIQHQDWMSGKEFKCKVNNKDLPAPIERTISKPKGSVRAPQVYVLPPPEEEMTKKQVTLTCMVTDFMPEDIYVEWTNNGKTELNYKNTEPVLDSDGSYFMYSKLRVEKKNWVERNSYSCSVVHEGLHNHHTTKSFSRTPGK
notes: As m16m, with the DANA mutations in the Fc; also called m16m (DANA); Mouse MSP β-L16-mIgG2a Fc (DANA)
B3: m.L12.m DANA (Fc fusion)
MSP β-linker-Fc fusion chain: VVGGHPGNSPWTVSLRNRQGQHFCGGSLVKEQWVLTARQCIWSCHEPLTGYEVWLGTINQNPQPGEANLQRVPVAKAVCGPAGSQLVLLKLERPVILNHHVALIALPPEQYVVPPGTKCEIAGWGESIGTSNNTVLHVASMNVISNQECNTKYRGHIQESEICTQGLVVPVGACEGDYGGPLACYTHDAWVLQGLIIPNRVCARPRWPAIFTRVSVFVDWINKVMQLEKKIEPRGPTIKPCPPCKCPAPNLLGGPSVFIFPPKIKDVLMISLSPIVTCVVVAVSEDDPDVQISWFVNNVEVHTAQTQTHREDYASTLRVVSALPIQHQDWMSGKEFKCKVNNKDLPAPIERTISKPKGSVRAPQVYVLPPPEEEMTKKQVTLTCMVTDFMPEDIYVEWTNNGKTELNYKNTEPVLDSDGSYFMYSKLRVEKKNWVERNSYSCSVVHEGLHNHHTTKSFSRTPGK
notes: As m12m, with the DANA mutations in the Fc; also called m12m (DANA); Mouse MSP β-L12-mIgG2a Fc (DANA)
B4: h.L16.m (Fc fusion)
MSP β-linker-Fc fusion chain: VVGGHPGNSPWTVSLRNRQGQHFCGGSLVKEQWILTARQCFSSCHMPLTGYEVWLGTLFQNPQHGEPSLQRVPVAKMVCGPSGSQLVLLKLERSVTLNQRVALISLPPEWYVVPPGTKCEIAGWGETKGTGNDTVLNVALLNVISNQECNIKHRGRVRESEMCTEGLLAPVGACEGDYGGPLACFTHNAWVLEGIIIPNRVCARSRWPAVFTRVSVFVDWIHKVMRLGQVTDKKIEPRGPTIKPCPPCKCPAPNLLGGPSVFIFPPKIKDVLMISLSPIVTCVVVDVSEDDPDVQISWFVNNVEVHTAQTQTHREDYNSTLRVVSALPIQHQDWMSGKEFKCKVNNKDLPAPIERTISKPKGSVRAPQVYVLPPPEEEMTKKQVTLTCMVTDFMPEDIYVEWTNNGKTELNYKNTEPVLDSDGSYFMYSKLRVEKKNWVERNSYSCSVVHEGLHNHHTTKSFSRTPGK
notes: Human MSP β joined by a 16-residue linker to murine IgG2a Fc; also called h16m; Human MSP β-L16-mIgG2a Fc
B5: m.L4.m DANA (Fc fusion)
MSP β-linker-Fc fusion chain: VVGGHPGNSPWTVSLRNRQGQHFCGGSLVKEQWVLTARQCIWSCHEPLTGYEVWLGTINQNPQPGEANLQRVPVAKAVCGPAGSQLVLLKLERPVILNHHVALIALPPEQYVVPPGTKCEIAGWGESIGTSNNTVLHVASMNVISNQECNTKYRGHIQESEICTQGLVVPVGACEGDYGGPLACYTHDAWVLQGLIIPNRVCARPRWPAIFTRVSVFVDWINKVMQLETIKPCPPCKCPAPNLLGGPSVFIFPPKIKDVLMISLSPIVTCVVVAVSEDDPDVQISWFVNNVEVHTAQTQTHREDYASTLRVVSALPIQHQDWMSGKEFKCKVNNKDLPAPIERTISKPKGSVRAPQVYVLPPPEEEMTKKQVTLTCMVTDFMPEDIYVEWTNNGKTELNYKNTEPVLDSDGSYFMYSKLRVEKKNWVERNSYSCSVVHEGLHNHHTTKSFSRTPGK
notes: As m4m, with the DANA mutations in the Fc; also called m4m (DANA); Mouse MSP β-L4-mIgG2a Fc (DANA)

The target in this assay is T1, Mouse RON-hIgG1 Fc (murine RON Sema/PSI/IPT1, natural leader + R33-V684, fused to human IgG1 Fc) (mouse).
T1 construct: also called mRON-hFc; murine RON-Fc
T1 sequence (chain, as listed by the source limits assumed): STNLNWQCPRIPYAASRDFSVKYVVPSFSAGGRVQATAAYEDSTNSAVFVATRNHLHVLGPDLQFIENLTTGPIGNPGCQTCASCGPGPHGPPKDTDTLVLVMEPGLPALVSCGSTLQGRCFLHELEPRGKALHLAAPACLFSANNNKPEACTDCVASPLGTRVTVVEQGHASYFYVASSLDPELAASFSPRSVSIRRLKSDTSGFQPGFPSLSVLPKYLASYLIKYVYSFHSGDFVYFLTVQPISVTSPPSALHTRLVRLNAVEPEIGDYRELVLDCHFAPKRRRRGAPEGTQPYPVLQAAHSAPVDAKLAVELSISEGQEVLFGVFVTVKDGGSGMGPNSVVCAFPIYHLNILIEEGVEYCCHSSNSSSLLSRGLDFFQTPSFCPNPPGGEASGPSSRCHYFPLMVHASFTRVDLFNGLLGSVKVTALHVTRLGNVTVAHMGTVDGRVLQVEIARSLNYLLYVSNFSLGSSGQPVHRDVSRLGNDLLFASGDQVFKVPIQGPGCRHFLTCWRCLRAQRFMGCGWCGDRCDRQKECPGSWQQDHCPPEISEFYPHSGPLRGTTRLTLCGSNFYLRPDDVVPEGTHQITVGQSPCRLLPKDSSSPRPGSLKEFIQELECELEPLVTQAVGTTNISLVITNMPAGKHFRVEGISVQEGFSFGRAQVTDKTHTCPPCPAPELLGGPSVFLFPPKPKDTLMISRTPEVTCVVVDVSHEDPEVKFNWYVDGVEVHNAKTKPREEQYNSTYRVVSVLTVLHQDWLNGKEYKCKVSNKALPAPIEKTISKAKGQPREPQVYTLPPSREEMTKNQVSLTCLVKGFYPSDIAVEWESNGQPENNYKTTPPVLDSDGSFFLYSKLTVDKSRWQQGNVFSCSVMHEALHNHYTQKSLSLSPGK
In words: SPR (Biacore), anti-Fc chip; legend names murine RON-Fc; the sheet's scheme ('RON or MSP' over 'MSP-Fc or RON-Fc') and have the MSPβ-Fc fusion captured and soluble RON-His injected. How it is done:
Binding kinetics of RON to MSP β-Fc fusion proteins and MSP proteins to RON-Fc fusions were determined using a Biacore 3000 optical biosensor equipped with a research-grade CM5 sensor chip (GE Healthcare). Amine coupling reagents, N-ethyl-N′-dimethylamino-propylcarbodiimide (EDC), N-hydroxy-succinimide (NHS) and sodium ethanolamine HCl, pH 8.5, were obtained from GE Healthcare. Standard coupling protocols were used to tether a rabbit anti-human IgG1 or rabbit anti-murine IgG2a (Jackson ImmunoResearch Laboratories) onto the biosensor surface. A biosensor chip that was subjected to the amine coupling procedure with no protein coupled was used to correct for non-specific binding. […] Various concentrations (500-3.9 nM, 2-fold dilution series) of RON-His, were injected in HBS-P buffer (10 mM HEPES, pH 7.5, 150 mM NaCl, 0.005% P20) at 25° C. with a flow rate of 30 μL/min and dissociation monitored for 240 sec. Between measurements, the biosensor surfaces were regenerated with a 120 s pulse of 10 mM glycine-HCl pH 1.5 followed by a 120 s wash with running buffer.
Background: Surface plasmon resonance follows binding to a sensor surface in real time, without labels.
As usually defined, the Kd is the free concentration of one partner at which half of the binding sites on the other are occupied at equilibrium, for simple one-to-one binding. In the case of B1, the Kd stood at 5 nM. For the molecule B2, the Kd was 6.6 nM. As to B3, the Kd worked out at 9.7 nM. With B4, the equilibrium dissociation constant (Kd) was 11.6 nM. The value for B5 was 13.8 nM.
